In article PMC9352680, “A comprehensive thermodynamic model for RNA binding by the Saccharomyces cerevisiae Pumilio protein PUF4”:

T1: PUF4 RNA-binding domain (Saccharomyces cerevisiae, UniProt P25339 537-888)
T1 sequence: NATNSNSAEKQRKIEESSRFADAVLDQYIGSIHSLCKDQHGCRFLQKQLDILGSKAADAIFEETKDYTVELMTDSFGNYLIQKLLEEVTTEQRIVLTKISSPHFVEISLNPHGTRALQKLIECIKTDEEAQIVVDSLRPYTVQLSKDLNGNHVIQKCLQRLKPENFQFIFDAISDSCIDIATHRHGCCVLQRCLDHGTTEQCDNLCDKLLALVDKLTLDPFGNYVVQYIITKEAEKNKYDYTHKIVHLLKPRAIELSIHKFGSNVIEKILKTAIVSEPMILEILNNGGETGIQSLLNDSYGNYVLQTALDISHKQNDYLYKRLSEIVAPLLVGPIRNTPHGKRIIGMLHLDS


Target: T1, PUF4 RNA-binding domain
Test: Mg; RNA-MaP; 20 mM Na-HEPES pH 7.4, 30 mM KOAc, 0.75 mM MgCl2, 0.1% Tween-20, 5% glycerol, 0.1 mg/mL BSA, 2 mM DTT; 25 C; 0.0125-409.6 nM protein
Conditions: tags: N-His6-TEV cleaved; C-SNAP kept, Cy3B-labelled; label: tethered on chip by stalled RNA polymerase

Binder | Kd
UCUCUUUAUAUUUUAUCUCUU (ssRNA) [Ib_S1_P4E.1_K4.1_C4.1_H4.1_[G2A]_A4.1_[A6T]_F4.1_T4.1] | 163 nM
UCUCUUACACACUAUAACUCUCUU (ssRNA) [Id_ii_S1_P3E.4_K3.3_C3.2_[C-2A]_[T-1C]_H3.3_A3.1_F3.1_T3.2_[T9A]_[A10C]] | > 2300 nM
UCUCUUACACACUAUAUUUCUCUU (ssRNA) [Id_ii_S1_P3E.4_K3.3_C3.2_[C-2A]_[T-1C]_H3.3_A3.1_F3.1_T3.2_[A10T]] | > 2300 nM
UCUCUUAAACACUAUAGCUCUCUU (ssRNA) [Id_ii_S1_P3E.4_K3.3_C3.2_[C-2A]_[T-1A]_H3.3_A3.1_F3.1_T3.2_[T9G]_[A10C]] | > 2300 nM
UCUCUUAAACACUAUACAUCUCUU (ssRNA) [Id_ii_S1_P3E.4_K3.3_C3.2_[C-2A]_[T-1A]_H3.3_A3.1_F3.1_T3.2_[T9C]] | > 2300 nM
UCUCUUAAACACUAUAACUCUCUU (ssRNA) [Id_ii_S1_P3E.4_K3.3_C3.2_[C-2A]_[T-1A]_H3.3_A3.1_F3.1_T3.2_[T9A]_[A10C]] | > 2300 nM
UCUCUUAAACACUAUAAAUCUCUU (ssRNA) [Id_ii_S1_P3E.4_K3.3_C3.2_[C-2A]_[T-1A]_H3.3_A3.1_F3.1_T3.2_[T9A]] | > 2300 nM
UCUCUUAAACACUAUAUUUCUCUU (ssRNA) [Id_ii_S1_P3E.4_K3.3_C3.2_[C-2A]_[T-1A]_H3.3_A3.1_F3.1_T3.2_[A10T]] | > 2300 nM
UCUCUUAUACACUAUAGCUCUCUU (ssRNA) [Id_ii_S1_P3E.4_K3.3_C3.2_[C-2A]_H3.3_A3.1_F3.1_T3.2_[T9G]_[A10C]] | 45.7 nM
UCUCUUAUACACUAUACGUCUCUU (ssRNA) [Id_ii_S1_P3E.4_K3.3_C3.2_[C-2A]_H3.3_A3.1_F3.1_T3.2_[T9C]_[A10G]] | 74.5 nM
UCUCUUAUACACUAUACCUCUCUU (ssRNA) [Id_ii_S1_P3E.4_K3.3_C3.2_[C-2A]_H3.3_A3.1_F3.1_T3.2_[T9C]_[A10C]] | 30.1 nM
UCUCUUUUUAUAGUAUCUCUU (ssRNA) [Ib_S1_P4E.1_K4.1_C4.1_H4.1_[G2T]_A4.1_[T7G]_F4.1_T4.1] | > 2300 nM
UCUCUUAUACACUAUACUUCUCUU (ssRNA) [Id_ii_S1_P3E.4_K3.3_C3.2_[C-2A]_H3.3_A3.1_F3.1_T3.2_[T9C]_[A10T]] | 36.1 nM
UCUCUUAUACACUAUACAUCUCUU (ssRNA) [Id_ii_S1_P3E.4_K3.3_C3.2_[C-2A]_H3.3_A3.1_F3.1_T3.2_[T9C]] | 34.9 nM
UCUCUUAUACACUAUAACUCUCUU (ssRNA) [Id_ii_S1_P3E.4_K3.3_C3.2_[C-2A]_H3.3_A3.1_F3.1_T3.2_[T9A]_[A10C]] | 46.2 nM
UCUCUUAUACACUAUAAUUCUCUU (ssRNA) [Id_ii_S1_P3E.4_K3.3_C3.2_[C-2A]_H3.3_A3.1_F3.1_T3.2_[T9A]_[A10T]] | 43.5 nM
UCUCUUAUACACUAUAUCUCUCUU (ssRNA) [Id_ii_S1_P3E.4_K3.3_C3.2_[C-2A]_H3.3_A3.1_F3.1_T3.2_[A10C]] | 40.6 nM
UCUCUUAUACACUAUAUUUCUCUU (ssRNA) [Id_ii_S1_P3E.4_K3.3_C3.2_[C-2A]_H3.3_A3.1_F3.1_T3.2_[A10T]] | 38.6 nM
UCUCUUAUACACUAUAUAUCUCUU (ssRNA) [Id_ii_S1_P3E.4_K3.3_C3.2_[C-2A]_H3.3_A3.1_F3.1_T3.2] | 31.3 nM
UCUCUUCGACACUAUAGCUCUCUU (ssRNA) [Id_ii_S1_P3E.4_K3.3_C3.2_[T-1G]_H3.3_A3.1_F3.1_T3.2_[T9G]_[A10C]] | > 2300 nM
UCUCUUCGACACUAUACUUCUCUU (ssRNA) [Id_ii_S1_P3E.4_K3.3_C3.2_[T-1G]_H3.3_A3.1_F3.1_T3.2_[T9C]_[A10T]] | > 2300 nM

Binder | Kd
UCUCUUCGACACUAUAACUCUCUU (ssRNA) [Id_ii_S1_P3E.4_K3.3_C3.2_[T-1G]_H3.3_A3.1_F3.1_T3.2_[T9A]_[A10C]] | > 2300 nM
UCUCUUUUUAUACUAUCUCUU (ssRNA) [Ib_S1_P4E.1_K4.1_C4.1_H4.1_[G2T]_A4.1_[T7C]_F4.1_T4.1] | 1060 nM
UCUCUUCGACACUAUAAUUCUCUU (ssRNA) [Id_ii_S1_P3E.4_K3.3_C3.2_[T-1G]_H3.3_A3.1_F3.1_T3.2_[T9A]_[A10T]] | > 2300 nM
UCUCUUCCACACUAUAGCUCUCUU (ssRNA) [Id_ii_S1_P3E.4_K3.3_C3.2_[T-1C]_H3.3_A3.1_F3.1_T3.2_[T9G]_[A10C]] | > 2300 nM
UCUCUUCCACACUAUACCUCUCUU (ssRNA) [Id_ii_S1_P3E.4_K3.3_C3.2_[T-1C]_H3.3_A3.1_F3.1_T3.2_[T9C]_[A10C]] | > 2300 nM
UCUCUUCCACACUAUACUUCUCUU (ssRNA) [Id_ii_S1_P3E.4_K3.3_C3.2_[T-1C]_H3.3_A3.1_F3.1_T3.2_[T9C]_[A10T]] | > 2300 nM
UCUCUUCCACACUAUACAUCUCUU (ssRNA) [Id_ii_S1_P3E.4_K3.3_C3.2_[T-1C]_H3.3_A3.1_F3.1_T3.2_[T9C]] | > 2300 nM
UCUCUUCCACACUAUAAUUCUCUU (ssRNA) [Id_ii_S1_P3E.4_K3.3_C3.2_[T-1C]_H3.3_A3.1_F3.1_T3.2_[T9A]_[A10T]] | > 2300 nM
UCUCUUCCACACUAUAAAUCUCUU (ssRNA) [Id_ii_S1_P3E.4_K3.3_C3.2_[T-1C]_H3.3_A3.1_F3.1_T3.2_[T9A]] | > 2300 nM
UCUCUUCCACACUAUAUUUCUCUU (ssRNA) [Id_ii_S1_P3E.4_K3.3_C3.2_[T-1C]_H3.3_A3.1_F3.1_T3.2_[A10T]] | > 2300 nM
UCUCUUCAACACUAUAGAUCUCUU (ssRNA) [Id_ii_S1_P3E.4_K3.3_C3.2_[T-1A]_H3.3_A3.1_F3.1_T3.2_[T9G]] | > 2300 nM
UCUCUUCAACACUAUACCUCUCUU (ssRNA) [Id_ii_S1_P3E.4_K3.3_C3.2_[T-1A]_H3.3_A3.1_F3.1_T3.2_[T9C]_[A10C]] | > 2300 nM
UCUCUUUUUAUAAUAUCUCUU (ssRNA) [Ib_S1_P4E.1_K4.1_C4.1_H4.1_[G2T]_A4.1_[T7A]_F4.1_T4.1] | 1450 nM
UCUCUUCAACACUAUAACUCUCUU (ssRNA) [Id_ii_S1_P3E.4_K3.3_C3.2_[T-1A]_H3.3_A3.1_F3.1_T3.2_[T9A]_[A10C]] | > 2300 nM
UCUCUUCAACACUAUAAAUCUCUU (ssRNA) [Id_ii_S1_P3E.4_K3.3_C3.2_[T-1A]_H3.3_A3.1_F3.1_T3.2_[T9A]] | > 2300 nM
UCUCUUCAACACUAUAUCUCUCUU (ssRNA) [Id_ii_S1_P3E.4_K3.3_C3.2_[T-1A]_H3.3_A3.1_F3.1_T3.2_[A10C]] | > 2300 nM
UCUCUUCUACACUAUAGCUCUCUU (ssRNA) [Id_ii_S1_P3E.4_K3.3_C3.2_H3.3_A3.1_F3.1_T3.2_[T9G]_[A10C]] | > 2300 nM
UCUCUUCUACACUAUAGUUCUCUU (ssRNA) [Id_ii_S1_P3E.4_K3.3_C3.2_H3.3_A3.1_F3.1_T3.2_[T9G]_[A10T]] | > 2300 nM
UCUCUUCUACACUAUACAUCUCUU (ssRNA) [Id_ii_S1_P3E.4_K3.3_C3.2_H3.3_A3.1_F3.1_T3.2_[T9C]] | 2230 nM
UCUCUUCUACACUAUAACUCUCUU (ssRNA) [Id_ii_S1_P3E.4_K3.3_C3.2_H3.3_A3.1_F3.1_T3.2_[T9A]_[A10C]] | > 2300 nM
UCUCUUCUACACUAUAAUUCUCUU (ssRNA) [Id_ii_S1_P3E.4_K3.3_C3.2_H3.3_A3.1_F3.1_T3.2_[T9A]_[A10T]] | 1870 nM

Binder | Kd
UCUCUUCUACACUAUAUGUCUCUU (ssRNA) [Id_ii_S1_P3E.4_K3.3_C3.2_H3.3_A3.1_F3.1_T3.2_[A10G]] | 1320 nM
UCUCUUCUACACUAUAUCUCUCUU (ssRNA) [Id_ii_S1_P3E.4_K3.3_C3.2_H3.3_A3.1_F3.1_T3.2_[A10C]] | 1460 nM
UCUCUUUAUAUAGUAUCUCUU (ssRNA) [Ib_S1_P4E.1_K4.1_C4.1_H4.1_[G2A]_A4.1_[T7G]_F4.1_T4.1] | 50.5 nM
UCUCUUCUACACUAUAUAUCUCUU (ssRNA) [If_S1_P3E.4_K3.3_C3.2_H3.3_A3.1_F3.1_T3.2] | 1000 nM
UCUCUUGCUGUAUAUUACCUCUCUU (ssRNA) [Id_ii_S1_P4E.2_K4.1_C4.2_[C-2G]_[T-1C]_H4.1_A4.1_F4.1_T4.2_[G10C]_[T11C]] | 0.957 nM
UCUCUUGCUGUAUAUUAUGUCUCUU (ssRNA) [Id_ii_S1_P4E.2_K4.1_C4.2_[C-2G]_[T-1C]_H4.1_A4.1_F4.1_T4.2_[G10T]_[T11G]] | 2.24 nM
UCUCUUGCUGUAUAUUAUCUCUCUU (ssRNA) [Id_ii_S1_P4E.2_K4.1_C4.2_[C-2G]_[T-1C]_H4.1_A4.1_F4.1_T4.2_[G10T]_[T11C]] | 1.14 nM
UCUCUUGCUGUAUAUUAUAUCUCUU (ssRNA) [Id_ii_S1_P4E.2_K4.1_C4.2_[C-2G]_[T-1C]_H4.1_A4.1_F4.1_T4.2_[G10T]_[T11A]] | 1.92 nM
UCUCUUGCUGUAUAUUAUUUCUCUU (ssRNA) [Id_ii_S1_P4E.2_K4.1_C4.2_[C-2G]_[T-1C]_H4.1_A4.1_F4.1_T4.2_[G10T]] | 1.28 nM
UCUCUUGCUGUAUAUUAACUCUCUU (ssRNA) [Id_ii_S1_P4E.2_K4.1_C4.2_[C-2G]_[T-1C]_H4.1_A4.1_F4.1_T4.2_[G10A]_[T11C]] | 1.52 nM
UCUCUUGCUGUAUAUUAAUUCUCUU (ssRNA) [Id_ii_S1_P4E.2_K4.1_C4.2_[C-2G]_[T-1C]_H4.1_A4.1_F4.1_T4.2_[G10A]] | 2.69 nM
UCUCUUGUUGUAUAUUAUGUCUCUU (ssRNA) [Id_ii_S1_P4E.2_K4.1_C4.2_[C-2G]_H4.1_A4.1_F4.1_T4.2_[G10T]_[T11G]] | 1.07 nM
UCUCUUGUUGUAUAUUAUCUCUCUU (ssRNA) [Id_ii_S1_P4E.2_K4.1_C4.2_[C-2G]_H4.1_A4.1_F4.1_T4.2_[G10T]_[T11C]] | 0.891 nM
UCUCUUUAUAUACUAUCUCUU (ssRNA) [Ib_S1_P4E.1_K4.1_C4.1_H4.1_[G2A]_A4.1_[T7C]_F4.1_T4.1] | 17.8 nM
UCUCUUGUUGUAUAUUAUUUCUCUU (ssRNA) [Id_ii_S1_P4E.2_K4.1_C4.2_[C-2G]_H4.1_A4.1_F4.1_T4.2_[G10T]] | 0.762 nM
UCUCUUGUUGUAUAUUAAAUCUCUU (ssRNA) [Id_ii_S1_P4E.2_K4.1_C4.2_[C-2G]_H4.1_A4.1_F4.1_T4.2_[G10A]_[T11A]] | 1.78 nM
UCUCUUGUUGUAUAUUAAUUCUCUU (ssRNA) [Id_ii_S1_P4E.2_K4.1_C4.2_[C-2G]_H4.1_A4.1_F4.1_T4.2_[G10A]] | 1.25 nM
UCUCUUGUUGUAUAUUAGUUCUCUU (ssRNA) [Id_ii_S1_P4E.2_K4.1_C4.2_[C-2G]_H4.1_A4.1_F4.1_T4.2] | 0.355 nM
UCUCUUUGUGUAUAUUAUGUCUCUU (ssRNA) [Id_ii_S1_P4E.2_K4.1_C4.2_[C-2T]_[T-1G]_H4.1_A4.1_F4.1_T4.2_[G10T]_[T11G]] | 0.968 nM
UCUCUUUGUGUAUAUUAUCUCUCUU (ssRNA) [Id_ii_S1_P4E.2_K4.1_C4.2_[C-2T]_[T-1G]_H4.1_A4.1_F4.1_T4.2_[G10T]_[T11C]] | 1.06 nM
UCUCUUUGUGUAUAUUAUUUCUCUU (ssRNA) [Id_ii_S1_P4E.2_K4.1_C4.2_[C-2T]_[T-1G]_H4.1_A4.1_F4.1_T4.2_[G10T]] | 0.848 nM
